Source: patent publication US20130217122A1, “Expansion of Interferon-Gamma-Producing T-Cells Using Glypican-3 Peptide Library” (The Trustees of the University of Pennsylvania, priority 2012, published 2013)

Molecular target: T1, human HLA-A2.1 on T2 cells (human)
T1 construct: whole, on cells; Empty or peptide-receptive HLA-A2.1 on TAP-deficient T2 cells; also called HLA-A*0201; class I MHC molecules
Assay: T2 binding assay (HLA-A2 on T2 cells, flow cytometry)

B1: Glypican-3 136-145 (SLTPQAFEFV) (peptide)
peptide: SLTPQAFEFV
notes: Synthetic 10 mer of human glypican-3 (NP-004475); also called GPC3 136-145; GPC3136-145
B1: binds.
